From the DeepSol protein solubility set

experiment: soluble on expression in E. coli; label from the status in PepcDB or PDB records

Row | Sequence | soluble on expression in E. coli
1 | MTKFILLALVGLAAAIDFDSSSSESCEDGNGHGHGHGNGNGNGNGNGNGNGGRANGGCETGWRHFRRPSGSWCVRVFGGRLNQGAAQSQCQSFGATLSGLRNLEEARTISNLALSVIGRSSGGIWLGARRTTACAKQHKTTSCSTTSSFRWTDSSASGTAGFVWNNVQPDNSDLNSQCAVLHAGSSAATVSNAVWQPAMMDDVTCSFDPAGRDPRSIYGYVCGKKPSRR | not soluble
2 | MAHHHHHHMKAFFIGKREYRRVLSLQETIFNAKIARQVSVRRGASKLPLLPDVVILVEHSTPVYTIGRRDTTHGLPPHCSIDVVKTRRGGGITYHGPGQLTMYPIANIQLLWKDCTAEKPRSPIEWFSWALEEAMIQTAAMYHIPTHRFKTGVWADQYKDIPAQKLGAVGLQLGSWVSMHGAGLNVASDLHFFDDIIMCELPDRRATSLSNEMQHRGVAESPPLVQATAPVLLQKFIESLHQQPSCAAPQLVDLSADADWHERVIDTAGISTP | not soluble
3 | MQKSDEVTEKFKRYCNQLEKYGQTENVHSPVMAMLRRKGRKQLIEIMKRDGDCTSSINKLWIVGYYHPFQFFIRDKEKNMAIAVLLTMFCGELQEMLSLPDDKYPALWNMYIGDFHRYMPDEEIQKCLAVGYYSRAIDLDPNQGRAFHVLAGLRADLNVAQKLRLMILGQLADAPYKKGTELLEYLKFPQKESTDKLMVDFVIWALNEKSKRMDYQMTGIKIVNEFKAEIEQKLEFDWSLIMSTCRLASKLAMKKFGFQQFYNCFDTISTLYITIYSRTISSKCLLAEAISWISDSAEILGHLDEQKNEPHFQKLSVFAKTKWNELNDLVMNHINSVFTSMSLTINPSISMTSFLLNGPISEPNVEFLSQLINYLVSVEFPPMEIIHDREESGPLLRRINQSEQKRLDIQIKTQNDEVNREDWRPVYVLMDYDVIVDKIRIALKIWDIDDFICILPSTVLDELDYQKTKNRAVRPVIRALMELQAEGKIVLKKCDNERSCAEQLVQSARRSAEDHKHIVAFLCKNPSEQKEMEGVTFYDIDQFYMKYLE | not soluble
4 | MGSDKIHHHHHHMRVKIYTLADDYAGYNSPFWAQHGVSFLVEVEGKKILFDTASYAEPILFNMKLLNLNPRDIDMIVLSHNHFDHTGGLLGILREINRKVPIFAHPEIFKVSFALEPEFMYAGTPRLKEEAEKLGGIWILTRDPITLMPGVFTLGEIKEEEKVEFEKGSTGLFKIEDGRVIEDKVEDEIGLAINTRKGLVVLAGCAHPGIVSMVKKAIKLSGNDKVYAVLGGFHLINAEDSRIEKTVEAFKELEVKKVYAGHCTGLKAESRFAQELGDRFEKLHSGKIIEIS | not soluble
5 | MAKLDETLTMLKALTDAKGVPGNEREARDVMKTYIAPYADEVTTDGLGSLIAKKEGKSGGPKVMIAGHLDEVGFMVTQIDDKGFIRFQTLGGWWSQVMLAQRVTIVTKKGDITGVIGSKPPHILPSEARKKPVEIKDMFIDIGATSREEAMEWGVRPGDMIVPYFEFTVLNNEKMLLAKAWDNRIGCAVAIDVLKQLKGVDHPNTVYGVGTVQEEVGLRGARTAAQFIQPDIAFAVDVGIAGDTPGVSEKEAMGKLGAGPHIVLYDATMVSHRGLREFVIEVAEELNIPHHFDAMPGVGTDAGAIHLTGIGVPSLTIAIPTRYIHSHAAILHRDDYENTVKLLVEVIKRLDADKVKQLTFDE | not soluble
6 | FLSDGKEIIAEKDEAIRETVKLLEEGHILAIKGIGGTHLACKVGEDDVVLELRKRLGRPTQPFAVMSKIEYTELFAEFDEDEKNALLSLRRPIVVLKKSQDYDKYFSKYVSNLDTIGVMFPYSGLHYLLFDKEIAYVMTSANLPGLPMVKDNDEILKKLNGIADYFLLHNRRIVNRCDDSVVKKVADRLVFLRRSRGFAPEPVKV | not soluble
7 | MGSVAARDYVGIATKYAEAAVADKGRKRHGRWIRLAAKRFLDDLKRARRRGTPFFFDEWHANDACDFIEKLPHVEGKWETPTIVMHPSHVFFVVQLFGFRRRDAIKVEGWGDDDTFHPRRFTSALFAVARKNAKSTLASAILLYCLCCEPEEGAQVISAATTFDQASIIFRASKRMVEKTPDLAEAFGLATWAKSISRFETGSSYKAVHAKASTQDGLNPSHTGLDEIHAHKTADLLNVLQSAAGARANPLWLFTTTEGYTNAGPWAEIRGFVFALLRGVLGTQADHFLALFYALDNEDKSAKITQDDEFDESKWIKANPLLDVNPHLKAAIRKEAVEAKQMPSKLAEFRIKRCNRPASTASGWVDLTKWAKCGGAVDLDWLAGYPCWGGLDLASTTDIAAFRLLWLVEGVWYTHGWRWVPSEAVKQRTERATVPYAGWVEAGYLLQTEGDVTDYSVIERDILAAVQRFDPQQIAYDAWNAADLVNRLVAASVPMVQFVQGTKSYHPAMQALELAYVGGKLVHGGDPVLAWCASNLVARRDVNLSMAPDRKRSADKIDDMAALLMAMGLAVASDDAEDLSDFFNNAVIGLEHHHHHH | soluble
8 | SLRSIMTPRGEISWVDAEQSEDEIRRQLLSSPHSLFPVCRGELDEIIGIVRAKEMLVALESGENVAALASASPAIVVPETLDPINLLGVLRRARGSFVIVTNEFGVVQGLVTPLDVLEAIAGEFPDADETPEIVIDGDGWLIKGSTDLHALQQALGLDPLINDDEDIATVAGLVISANGHIPRIGDVVSLPPLHFTVVEANDYRV | soluble
9 | MGHHHHHHSHRSQPVHILAVRRLQEEDQQFRTSSLPAIPNPFPELCGPGSPPVLTPGSLPPSQAAAKQDVKVFSEDGTSKVVEILADMTARDLCQLLVYKSHCVDDNSWTLVEHHPHLGLERCLEDHELVVQVESTMASESKFLFRKNYAKYEFF | not soluble
10 | MGNEEEKMNADIFSYEGEGIQCVYDNKNWVMCIKNWKPNNDIENIRYLEVHHATDEQFVLLKGKAVLLAAVKADGACRIDVIPMEPYKVYNIPQGIWFNTITQKDTKLVYVQDAATTAENSEYCDMTQEELNEVKEKASACLD | not soluble
11 | MVSQLACIIWTGIIAGRTATLTEGDNMKLPKWLEEKYDLLWDKFEDREFRSTEALEILGKEHLIDEKSLSAAISEMRKKGWIETRKDPDDERRRIYMLRPKSEIIQDYLTLKDDKLGRADIERILKGAADLIRTRVDYKFILVLLFMKQMSDKWMMEYQKAYEDAIKEYGLSEEEARLEARNSAYHDLDIKEEYLWDNIRKDVENLPIKFAGALKNLAELNPAFKDVVDAFDFVEFTQSQENREILRQLVELFSEKKLTNVDPDILGDAYEWILRYFAPTKAKEGEVYTPREVIRLLVEILDPKPGESVYDPASASNGMLIISHKYVKETYGEAERLFLYGQEVNRKTMALGSMNMYIHDIKDHHIAHGDTLLYPKFKESDGIMRFDVVIANPPWNQDGYGEDTLKKGDYWRERFRYGFVNKQSADWAWIQHMIASAKDDGRIGVVIDNGCLFRGGREKSIRSAVLEDDLIEAVILLPEKLFYNTGAPGAIIILNKDKDEERRGKVLFINAGEEYEKHPEVRKLNILSDGNIERILEAYREFQGDDGFSRVVDLDEIRENDYNLNVPLYAFPEEELEDIDVAGEWMRLSEIEEELAEVDERIRGYLDELGYMGVKM | soluble
12 | TDVDAFTLGEDLAYTPGDVIYQNDLIQLIQYKASTKKVNEVPLLFIPPFINKYYVLDMDEQKSLIKWAVGQGHTVFVISWINPDKTLSHKGFNDYMKEGPIASLDVIEELTKSKKVNVVGYCIGGTLLATTQSYLLAKGDTRINSLTFLTTLLDFEEPGEIGVYLSEKMLPFLKKDIKEKGLLDGRVLGLAFSMLRENSLFWSYFVNNYLKGKDPAPFDILYWNSDSSNLPAETFDFYMTNTYQENNLIKDGAVEVEGVPIELSKIDTPSYFLATIADHIVLWQASYKGAKALSGPTRFVLAGSGHL | not soluble
13 | VVQGTVKPHASFNSREDAETLRKAMKGIGTDEKSITHILATRSNAQRQQIKTDYTTLFGKHLEDELKSELSGNYEAAALALLRKPDEFLAEQLHAAMKGLGTDKNALIDILCTQSNAQIHAIKAAFKLLYKEDLEKEIISETSGNFQRLLVSMLQGGRKEDEPVNAAHAAEDAAAIYQAGEGQIGTDESRFNAVLATRSYPQLHQIFHEYSKISNKTILQAIENEFSGDIKNGLLAIVKSVENRFAYFAERLHHAMKGLGTSDKTLIRILVSRSEIDLANIKETFQAMYGKSLYEFIADDCSGDYKDLLLQITGH | soluble
14 | MGSDKIHHHHHHLKKQAVVIGAGLAGMSAAIRLAGDGYEVTMLEQNGNVGGKLNQRSGQGFTFDTGPSILTMPWVLEQLFTSVHRRLDDYLEIERIEPQWRTFFEDGTQLDVKGDLPGMLEEFKKVSDQADFVELFSYSKKMYDLCLDSFYKYSLEDLKDLKKYHTMSELLKMDPLNTVASGTKKHLNNKYLEQLFNYMVMYVGSNPYEAPAVFNQMIYVQMGLGIYYVKGGMYNIARAMKTVLDELRVTIHVNTPVARVVTEGKRAIGVETTDGTFYPADVVVSNLEVIPTYQHLISEKKGPKQAKKLNQSFVPSVSGLVLLLGVNREYKDLKHHNFFFSDDPEREFAQMFKDGVPPEDPTIYVGVSSKSDASQAPEGKDNLFVLTHVPPLTKQDGKTDWDAYREVVLDKLERMGLTDLRESIEFEYRFTPEDLKSLYGPNGGSIYGVAADRKKNGGFKIPSKSDLYEGLYFVGGSTHPGGGVPMVTLSGQLTADLIQKHEKVKA | not soluble
15 | MGSDKIHHHHHHMNVVVQKYGGSSVATPERIKNVAQRIKKKVDEGYKVVVVVSAMGKTTDNLIKLAKEISPRPDSRELDMLLATGEQVSAALLSMALKDLGVKAKSLNAFQVKIKTTPHHTSARIVDIDDSVIRENLKDYDVLVVTGFQGVNEHGDLTTLGRGGSDTSAVALAAKLRVPCEIYSDVDGIYTCDPRVHPRAKKLAYITYDEALELTALGAKVLHSRSVEIAKKYGIPIYCASSFTEEEGTMVVERLPEWLEEPVVTGATISHGQIKVSISFLPKDVKYITAIFEEVGKRALNVDMISLVPSNGKVFLSFTILEDHKEDLDEALKEALRDVEGWKSTYEGGFAKLSIVGVGMRTSPGVAARFFEALERAGVTPELVTTSEIKISCLVPEEKAEEALKSVIEEFEL | not soluble
16 | MSLLHKDYHHFALTALEERKLAQLPPYSFLSLFRAEANHTAQVEDFLRQVRETLRCNPWFDSECMVLGPTPAPLAKRAGKFRWQLLLQTPNRTLMQKILQSARPALQQLPLASKVRWSIDIDPQDLSEGHHHHHH | soluble
17 | MADSKAKPAKAANKTPPKSPGDPARAAKRLSLESEGANEGATAAPELSALEEAFRRFAVHGDTRATGKEMHGKNWSKLCKDCHVIDGKNVTVTDVDIVFSKIKGKSCRTITFEQFQEALEELAKKRFKDKSSEEAVREVHRLIEGRAPVISGVTKAVSSPTVSRLTDTSKFTGSHKERFDQSGKGKGKAGRVDLVDESGYVPGYKHAGTYDQKVQGGK | soluble
18 | MKHEWRKFEKELYGVKAKPIFLEVEEQRFITIKGKGNPNDQDFSNRVSALYALAYGIKMAYKQAMKTEQDDRAVTDFAVYPLEGLWQQAKDAKEDTLEKDKLSYTIMIRQPEFITKELVDQALDRVKIKKPNSFYESISFESIKDGKCIQVLHIGSYDDEPQSFAKMDAFAKEHGLKRSSDIHREIYLSNAQRTEKSKLKTILRYQVEEK | not soluble
19 | MGSSHHHHHHSSGLVPRGSHMSSENIPLRVQFKRMKAAEWARSDVILLESEIGFETDTGFARAGDGHNRFSDLGYISPLDYNLLTNKPNIDGLATKVETAQKLQQKADKETVYTKAESKQELDKKLNLKGGVMTGQLKFKPAATVAYSSSTGGAVNIDLSSTRGAGVVVYSDNDTSDGPLMSLRTGKETFNQSALFVDYKGTTNAVNIAMRQPTTPNFSSALNITSGNENGSAMQLRGSEKALGTLKITHENPSIGADYDKNAAALSIDIVKKTNGAGTAAQGIYINSTSGTTGKLLRIRNLSDDKFYVKSDGGFYAKETSQIDGNLKLKDPTANDHAATKAYVDKAISELKKLILKK | soluble
